Each substance was assayed on MukB (Escherichia coli) (assay: pull-down (MU topological loading assay)). Settings: no ATP, 750 mM KCl wash, MU assay: low salt 25 mM KCl loading (37 °C), His-tag affinity beads, typically 7.3 pmol MukB and 100 ng DNA, SSB EMSA: HKD buffer (25 mM …).
With ldsDNA the binding signal (% DNA retrieved) was 0.6. For pUC119 cssDNA, the binding signal (% DNA retrieved) was 10.6. cccDNA (pUC19/pUC119) was tested, and the binding signal (% DNA retrieved) was 4.6.
